# Assay results: publication PMC4072508, “Genome-Wide Prediction and Validation of Peptides That Bind Human Prosurvival Bcl-2 Proteins” (PLoS Computational Biology, 2014)
# T1: Bcl-w, Q92843
# T1 chain: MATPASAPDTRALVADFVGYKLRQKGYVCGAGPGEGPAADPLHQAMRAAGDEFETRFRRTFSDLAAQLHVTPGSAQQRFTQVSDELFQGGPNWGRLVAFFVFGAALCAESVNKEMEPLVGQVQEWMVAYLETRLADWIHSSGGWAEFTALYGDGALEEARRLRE
# T2: Bfl-1, Q16548
# T2 chain: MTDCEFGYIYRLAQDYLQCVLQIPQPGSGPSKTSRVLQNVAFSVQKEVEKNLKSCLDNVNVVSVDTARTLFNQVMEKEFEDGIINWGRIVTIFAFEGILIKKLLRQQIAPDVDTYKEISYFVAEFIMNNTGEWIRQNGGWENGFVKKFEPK
# T3: Mcl-1, Q07820
# T3 chain: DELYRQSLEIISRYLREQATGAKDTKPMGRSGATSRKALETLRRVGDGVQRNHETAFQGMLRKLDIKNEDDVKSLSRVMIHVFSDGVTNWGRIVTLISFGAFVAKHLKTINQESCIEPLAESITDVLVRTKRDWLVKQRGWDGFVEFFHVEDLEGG
# Molecular target: Bcl-2, P10415
# Sequence (P10415 1-217): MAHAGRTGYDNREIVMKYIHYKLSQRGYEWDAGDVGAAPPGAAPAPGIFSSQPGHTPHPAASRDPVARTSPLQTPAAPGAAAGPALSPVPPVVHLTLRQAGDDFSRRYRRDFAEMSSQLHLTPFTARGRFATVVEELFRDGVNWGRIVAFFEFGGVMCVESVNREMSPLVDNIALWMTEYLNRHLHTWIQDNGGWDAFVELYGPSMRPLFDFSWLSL
# Test: peptide SPOT array, c-Myc-tagged receptor at 1 uM or 100 nM, anti-c-Myc-Cy3
row,Binder,SPOT signal as a fraction of Bim BH3's signal on the same receptor and array
1,FSSDAVTSRVLLNVGQEVIAVVEENK [MOV10L1],0.01
2,EERAQNVTRLLRKQAEEVNTEWEKLN,0.01
3,DTIYQGFAECLIRLGDSMGRGGELET [NRN1L],0.01
4,CSTNNPSQAKLRRELDESLQVAERLT [CLU],0.01
5,DNHKKKTVKMLEYLGKDVLHGVFNYL [CASP5],0.05
6,RDASKILVDALQKFADDMYSLYGGNA [ATP6AP2],0.01
7,TNISWRACDHLRCIACDFLVVSYDDY [C8orf37],0.01
8,KYDPSKYCHNLKKIGEDFSNTIPISS [NOL8],0.02
9,TIHFNQRGTRLASSGDDLRVIVWDWV [DCAF8L1],0.02
10,GFANHDVVEVLRNAGQVVHLTLVRRK [INADL],0.12
11,FYRRRDISNTLIMLADKHAKEIEEES [MTA3],0.03
12,IGQRQTVVRTLNATGEEIIQQSSKTD,0.01
13,AAVGNHVAKLLQSIGQAPESISEKEL [NAE1],0.01

# Results, then the binder that gave them:
row,SPOT signal as a fraction of Bim BH3's signal on the same receptor and array,Binder
1,0.19,AIKPVSFIRDLKKIARHFRFGNQEDA [USP36]
2,0.01,EEIIHKLAMQDRHIGDNIDHRMVRED [PXT1]
3,0.1,FEKLRMIAKEIRHVGRMASVNMDPAL [RAPGEF2]
4,0.09,DISLSNSGFKLVNFGCDYHQYRDKFS [PION]
5,0.01,DLTDKLVSFYLETYGAELTANVLRDM [PYCARD]
6,0.02,SATHDEAVQVLKKTGKEVVLEVKYMK [SNTA1]
7,0.01,LGDGPKLVRELFRVAEEHAPSIVFID [PSMC1]
8,0.01,TIRNGHDSELLRSLAEELPLEQGFTI [PLCD4]
9,0.02,MVLDPSLAEHLSHFGIDMLKMQKTDK [USP5]

# Molecular target: T1, Bcl-w, Q92843
# Test: as above
row,Binder,SPOT signal as a fraction of Bim BH3's signal on the same receptor and array
1,FSSDAVTSRVLLNVGQEVIAVVEENK [MOV10L1],0.02
2,EERAQNVTRLLRKQAEEVNTEWEKLN,0.04
3,DTIYQGFAECLIRLGDSMGRGGELET [NRN1L],0.03
4,CSTNNPSQAKLRRELDESLQVAERLT [CLU],0.02
5,DNHKKKTVKMLEYLGKDVLHGVFNYL [CASP5],0.21
6,RDASKILVDALQKFADDMYSLYGGNA [ATP6AP2],0.05
7,TNISWRACDHLRCIACDFLVVSYDDY [C8orf37],0.15
8,KYDPSKYCHNLKKIGEDFSNTIPISS [NOL8],0.05
9,TIHFNQRGTRLASSGDDLRVIVWDWV [DCAF8L1],0.03
10,GFANHDVVEVLRNAGQVVHLTLVRRK [INADL],0.31
11,FYRRRDISNTLIMLADKHAKEIEEES [MTA3],0.09
12,IGQRQTVVRTLNATGEEIIQQSSKTD,0.02
13,AAVGNHVAKLLQSIGQAPESISEKEL [NAE1],0.02

# More lines, now with the values ahead:
row,SPOT signal as a fraction of Bim BH3's signal on the same receptor and array,Binder
1,0.75,AIKPVSFIRDLKKIARHFRFGNQEDA [USP36]
2,0.02,EEIIHKLAMQDRHIGDNIDHRMVRED [PXT1]
3,0.18,FEKLRMIAKEIRHVGRMASVNMDPAL [RAPGEF2]
4,0.2,DISLSNSGFKLVNFGCDYHQYRDKFS [PION]
5,0.03,DLTDKLVSFYLETYGAELTANVLRDM [PYCARD]
6,0.08,SATHDEAVQVLKKTGKEVVLEVKYMK [SNTA1]
7,0.02,LGDGPKLVRELFRVAEEHAPSIVFID [PSMC1]
8,0.01,TIRNGHDSELLRSLAEELPLEQGFTI [PLCD4]
9,0.03,MVLDPSLAEHLSHFGIDMLKMQKTDK [USP5]

# Molecular target: Bcl-xL, Q07817
# Sequence (Q07817 1-209): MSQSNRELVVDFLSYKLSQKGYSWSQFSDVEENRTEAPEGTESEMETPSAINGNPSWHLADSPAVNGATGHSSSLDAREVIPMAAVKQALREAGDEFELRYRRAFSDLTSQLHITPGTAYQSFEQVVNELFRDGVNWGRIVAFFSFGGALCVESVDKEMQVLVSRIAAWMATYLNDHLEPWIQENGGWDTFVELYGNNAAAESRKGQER
# Test: as above
row,Binder,SPOT signal as a fraction of Bim BH3's signal on the same receptor and array
1,FSSDAVTSRVLLNVGQEVIAVVEENK [MOV10L1],0.03
2,EERAQNVTRLLRKQAEEVNTEWEKLN,0.04
3,DTIYQGFAECLIRLGDSMGRGGELET [NRN1L],0.035
4,CSTNNPSQAKLRRELDESLQVAERLT [CLU],0.03
5,DNHKKKTVKMLEYLGKDVLHGVFNYL [CASP5],0.28
6,RDASKILVDALQKFADDMYSLYGGNA [ATP6AP2],0.03
7,TNISWRACDHLRCIACDFLVVSYDDY [C8orf37],0.08
8,KYDPSKYCHNLKKIGEDFSNTIPISS [NOL8],0.57
9,TIHFNQRGTRLASSGDDLRVIVWDWV [DCAF8L1],0.06
10,GFANHDVVEVLRNAGQVVHLTLVRRK [INADL],0.33
11,FYRRRDISNTLIMLADKHAKEIEEES [MTA3],0.15
12,IGQRQTVVRTLNATGEEIIQQSSKTD,0.03
13,AAVGNHVAKLLQSIGQAPESISEKEL [NAE1],0.03

# Now from value to binder:
row,SPOT signal as a fraction of Bim BH3's signal on the same receptor and array,Binder
1,0.61,AIKPVSFIRDLKKIARHFRFGNQEDA [USP36]
2,0.02,EEIIHKLAMQDRHIGDNIDHRMVRED [PXT1]
3,0.19,FEKLRMIAKEIRHVGRMASVNMDPAL [RAPGEF2]
4,0.39,DISLSNSGFKLVNFGCDYHQYRDKFS [PION]
5,0.04,DLTDKLVSFYLETYGAELTANVLRDM [PYCARD]
6,0.15,SATHDEAVQVLKKTGKEVVLEVKYMK [SNTA1]
7,0.04,LGDGPKLVRELFRVAEEHAPSIVFID [PSMC1]
8,0.02,TIRNGHDSELLRSLAEELPLEQGFTI [PLCD4]
9,0.07,MVLDPSLAEHLSHFGIDMLKMQKTDK [USP5]

# Molecular target: T2, Bfl-1, Q16548
# Test: as above
row,Binder,SPOT signal as a fraction of Bim BH3's signal on the same receptor and array
1,FSSDAVTSRVLLNVGQEVIAVVEENK [MOV10L1],0.02
2,EERAQNVTRLLRKQAEEVNTEWEKLN,0.04
3,DTIYQGFAECLIRLGDSMGRGGELET [NRN1L],0.02
4,CSTNNPSQAKLRRELDESLQVAERLT [CLU],0.02
5,DNHKKKTVKMLEYLGKDVLHGVFNYL [CASP5],0.19
6,RDASKILVDALQKFADDMYSLYGGNA [ATP6AP2],0.02
7,TNISWRACDHLRCIACDFLVVSYDDY [C8orf37],0.02
8,KYDPSKYCHNLKKIGEDFSNTIPISS [NOL8],0.05
9,TIHFNQRGTRLASSGDDLRVIVWDWV [DCAF8L1],0.04
10,GFANHDVVEVLRNAGQVVHLTLVRRK [INADL],0.38
11,FYRRRDISNTLIMLADKHAKEIEEES [MTA3],0.08
12,IGQRQTVVRTLNATGEEIIQQSSKTD,0.03
13,AAVGNHVAKLLQSIGQAPESISEKEL [NAE1],0.02

# Continued, values first:
row,SPOT signal as a fraction of Bim BH3's signal on the same receptor and array,Binder
1,0.65,AIKPVSFIRDLKKIARHFRFGNQEDA [USP36]
2,0.02,EEIIHKLAMQDRHIGDNIDHRMVRED [PXT1]
3,0.38,FEKLRMIAKEIRHVGRMASVNMDPAL [RAPGEF2]
4,0.38,DISLSNSGFKLVNFGCDYHQYRDKFS [PION]
5,0.02,DLTDKLVSFYLETYGAELTANVLRDM [PYCARD]
6,0.05,SATHDEAVQVLKKTGKEVVLEVKYMK [SNTA1]
7,0.03,LGDGPKLVRELFRVAEEHAPSIVFID [PSMC1]
8,0.02,TIRNGHDSELLRSLAEELPLEQGFTI [PLCD4]
9,0.07,MVLDPSLAEHLSHFGIDMLKMQKTDK [USP5]

# Molecular target: T3, Mcl-1, Q07820
# Test: as above
row,Binder,SPOT signal as a fraction of Bim BH3's signal on the same receptor and array
1,FSSDAVTSRVLLNVGQEVIAVVEENK [MOV10L1],0.02
2,EERAQNVTRLLRKQAEEVNTEWEKLN,0.02
3,DTIYQGFAECLIRLGDSMGRGGELET [NRN1L],0.17
4,CSTNNPSQAKLRRELDESLQVAERLT [CLU],0.02
5,DNHKKKTVKMLEYLGKDVLHGVFNYL [CASP5],0.11
6,RDASKILVDALQKFADDMYSLYGGNA [ATP6AP2],0.02
7,TNISWRACDHLRCIACDFLVVSYDDY [C8orf37],0.08
8,KYDPSKYCHNLKKIGEDFSNTIPISS [NOL8],0.03
9,TIHFNQRGTRLASSGDDLRVIVWDWV [DCAF8L1],0.04
10,GFANHDVVEVLRNAGQVVHLTLVRRK [INADL],0.34
11,FYRRRDISNTLIMLADKHAKEIEEES [MTA3],0.07
12,IGQRQTVVRTLNATGEEIIQQSSKTD,0.02
13,AAVGNHVAKLLQSIGQAPESISEKEL [NAE1],0.02

# Results, then the binder that gave them:
row,SPOT signal as a fraction of Bim BH3's signal on the same receptor and array,Binder
1,0.39,AIKPVSFIRDLKKIARHFRFGNQEDA [USP36]
2,0.03,EEIIHKLAMQDRHIGDNIDHRMVRED [PXT1]
3,0.13,FEKLRMIAKEIRHVGRMASVNMDPAL [RAPGEF2]
4,0.14,DISLSNSGFKLVNFGCDYHQYRDKFS [PION]
5,0.07,DLTDKLVSFYLETYGAELTANVLRDM [PYCARD]
6,0.06,SATHDEAVQVLKKTGKEVVLEVKYMK [SNTA1]
7,0.04,LGDGPKLVRELFRVAEEHAPSIVFID [PSMC1]
8,0.02,TIRNGHDSELLRSLAEELPLEQGFTI [PLCD4]
9,0.04,MVLDPSLAEHLSHFGIDMLKMQKTDK [USP5]
